Measured values from patent US8603949B2, “Libraries of optimized cytochrome P450 enzymes and the optimized P450 enzymes” (California Institute of Technology, priority 2003, dated 2013).

Tests used:
[1] = Peroxidase activity with ABTS and H2O2; assay type: biochemical; conditions: for Peroxidase activity: 10 mM ABTS, 20 mM H2O2, pH 5.0, activities <0.2 not detectable (N.D.); for peroxidase activity relative to parents: ABTS
Source text: P450s can reduce peroxide to water (and a proton) using a mechanism similar to that of peroxidases, although the intrinsic rate for P450s is many orders of magnitude slower. (Mansuy, D., Comp Biochem Physiol C Pharmacol Toxicol Endocrinol 121, 5-14 (1998)). It has been proposed that the earliest P450 function may have been as a peroxidase. (Gotoh, O., Cytochrome P450, 2nd Edition, pp. 255-272 (1993)). To investigate how recombination affects P450 peroxidase activity, the colorimetric substrate 2,2′-azino-bis(3-ethylbenzothiazoline-6-sulfonate) (ABTS) was used to monitor this reaction (Childs et al., Biochem J 145,93-103 (1975)).
This example provides an example of how one can measure peroxidase activity. Initial rates of peroxidase activity were measured by monitoring the accumulation of the radical cation of ABTS at 414 nm (Childs et al., Biochem J., 145:93-103 (1975)). Enzyme (1 μM) was mixed with 10 mM ABTS in 200 mM phosphate buffer (pH 5.0) in a cuvette at room temperature. Samples were zeroed and reactions were initiated with the addition of H2O2 to a concentration of 20 mM. The absorbance at 414 nm was monitored for 5 minutes. Rates were determined from the steepest portion of the time course. An extinction coefficient of […] for ABTS was used.

[2] = Thermostability (loss of Soret band at increasing temperatures); assay type: physicochemical; conditions: cell extracts heated 10 minutes
Experimental: Thermostability was assayed by monitoring the loss of the Soret band at increasing temperatures. […] However, thermostability may be important for retention of catalytic activity: the two chimeras that lacked peroxygenase activity were also the least thermostable.
Cell extracts were heated in a thermocycler for 10 minutes at various temperatures, followed by cooling to 4° C. Extracts were centrifuged for 5 minutes at 3500×g to remove any precipitates. Carbon monoxide reduced difference spectroscopy was used to quantitate the amount of P450. The reduction of the carbon monoxide peak was monitored over a range of temperatures.

[3] = Peroxygenase substrate activity profile; assay type: biochemical; conditions: 20 mM H2O2
Experimental: The chimeras were assayed for hydroxylation of p-nitrophenoxydodecanoic acid (12-pNCA), a fatty acid analog that is hydroxylated by CYP102A1 and CYP102A2 to yield p-nitrophenolate (Schwaneberg et al., Anal Biochem 269,359-366 (1999)). […] When hydroxylation rates for the parent CYP102 enzymes were monitored using the maximum soluble concentrations of these substrates, activity could only be detected on 2-phenoxy-ethanol.
Chimeras were assayed for peroxygenase activity on 12-pNCA, 2-phenoxy -ethanol and allyloxy-benzene. […] Rates are reported in nmol product/nmol P450/minute. […] Those with no activity include 65-256 and 277-365. Those with new activity include 165-256, 191-335, and 43-135.
This Example provides one method by which peroxygenase activity of a P450 enzyme may be characterized. First order rates for p-nitrophenolate accumulation were determined using 1 μM enzyme, 20 mM H2O2, 250 μM 12-pNCA and 0.5% dimethyl sulfoxide (DMSO) in 100 mM Tris-HCl (pH 8.2) at room temperature. Enzyme, substrate, buffer and DMSO were combined in a cuvette and zeroed at 410 nm. Reaction mixtures were incubated for 4 minutes and initiated by the addition of H2O2 to a final concentration of 20 mM. Initial rates were determined by monitoring the accumulation of p-nitrophenolate at 410 nm, and data from the first six seconds were used to determine initial rates. […] The extinction coefficient of p-nitrophenolate is 13,200 M^−1cm^−1 (Schwaneberg et al., Anal Biochem 269:359-366 (1999)).
Rates on 2-phenoxy-ethanol and allyloxy-benzene were determined using 2 μM enzyme, 20 mM H2O2, 1% DMSO, and 1% acetone in 100 mM N-[2-hydroxyethyl]piperazine-N′-[3-propanesulfonic acid] (Epps) (pH 8.2) at room temperature. Substrate concentrations for 2-phenoxy-ethanol (100 mM) and allyloxy benzene (50 mM) maintained saturation. Reactions were initiated by the addition of H2O2 and quenched at appropriate times using an equal volume of a solution containing 4M urea and 100 mM NaOH. 120 μl of 0.6% 4-AAP was added, followed by mixing and addition of 120 μl of 0.6% potassium persulfate. Color was allowed to develop for 20 minutes before absorbance was read at 500 nm. Rates were determined from the linear region of the time course. The major products were determined by GC/MS to be the hemiacetal, which decomposes to phenol. The extinction coefficient for the 4-AAP/phenol complex was determined to be 4,800 M^−1cm^−1. The results can be seen in FIG. 4.

Row | substrate activity profile relative to parents [3] | Molecule | Peroxidase activity [1] | peroxidase activity relative to parents [1] | Tm [2]
1 | parent-like profiles | Chimera 165-256M: mirror chimera of 165-256, sequences from opposite parents at every position (protein, Chimeric Cytochrome P450 heme group sequence from Bacillus megaterium and Bacillus subtilis) KETSPIPQPKTFGPLGNLPLIDKDKPTLSLIKLAEEQGPIFQIHTPAGTTIVVSGHELVKEVCDEERFDKSIEGALEKVRAFSGDGLATSWTHEPNWRKAHNILMPTFSQRAMKDYHEKMVDIAVQLIQKWARLNPNEAVDVPGDMTRLTLDTIGLCGFNYRFNSFYRDQPHPFITSMVRALDEAMNKLQRANPDDPAYDENKRQFQEDIKVMNDLVDKIIADRKASGEQSDDLLTHMLNGKDPETGEPLDDENIRYQIITFLIAGHETTSGLLSFATYFLLKHPDKLKKAYEEVDRVLTDAAPTYKQVLELTYIRMILNESLRLWPTAPAFSLYPKEDTVIGGKFPITTNDRISVLIPQLHRDRDAWGKDAEEFRPERFEHQDQVPHHAYKPFGNGQRACIGMQFALHEATLVLGMILKYFTLIDHENYELDIKQTLTLKPGDFHISVQSRHQEAIHADVQAAE | 3.5 nmol product/nmol P450/min | did not show similarly enhanced levels | 50 °C
2 | altered activity | Chimera 70-299: CYP102A1 heme domain with residues 70-299 from CYP102A2 (protein, Chimeric Cytochrome P450 heme group sequence from Bacillus megaterium and Bacillus subtilis, CYP102A1 heme domain with residues 70-299 from CYP102A2) TIKEMPQPKTFGELKNLPLLNTDKPVQALMKIADELGEIFKFEAPGRVTRYLSSQRLIKEACDESRFDKSIEGALEKVRAFSGDGLATSWTHEPNWRKAHNILMPTFSQRAMKDYHEKMVDIAVQLIQKWARLNPNEAVDVPGDMTRLTLDTIGLCGFNYRFNSYYRETPHPFINSMVRALDEAMHQMQRLDVQDKLMVRTKRQFRYDIQTMFSLVDSIIAERRANGDQDEKDLLARMLNVEDPETGEKLDDENIRFQIITFLIAGHETTSGLLSFATYFLLKHPDKLKKAYEEVDRVLTDPVPSYKQVKQLKYVGMVLNEALRLWPTAPAFSLYAKEDTVLGGEYPLEKGDELMVLIPQLHRDKTIWGDDVEEFRPERFENPSAIPQHAFKPFGNGQRACIGQQFALHEATLVLGMMLKHFDFEDHTNYELDIKETLTLKPEGFVVKAKSKKIPLGGIPSPST | 0.8 nmol product/nmol P450/min |  | 42 °C
3 | parent-like profiles | Chimera 364-403: CYP102A1 heme domain with residues 364-403 from CYP102A2 (protein, Chimeric Cytochrome P450 heme group sequence from Bacillus megaterium and Bacillus subtilis, CYP102A1 heme domain with residues 364-403 from CYP102A2) TIKEMPQPKTFGELKNLPLLNTDKPVQALMKIADELGEIFKFEAPGRVTRYLSSQRLIKEACDESRFDKNLSQALKFVRDFAGDGLATSWTHEKNWKKAHNILLPSFSQQAMKGYHAMMVDIAVQLVQKWERLNADEHIEVPEDMTRLTLDTIGLCGFNYRFNSFYRDQPHPFITSMVRALDEAMNKLQRANPDDPAYDENKRQFQEDIKVMNDLVDKIIADRKASGEQSDDLLTHMLNGKDPETGEPLDDENIRYQIITFLIAGHETTSGLLSFALYFLVKNPHVLQKAAEEAARVLVDPVPSYKQVKQLKYVGMVLNEALRLWPTAPAFSLYAKEDTVLGGEYPLEKGDELMVLIPQLHRDRDAWGKDAEEFRPERFEHQDQVPHHAYKPFGNGQRACIGMQFALHEATLVLGMMLKHFDFEDHTNYELDIKETLTLKPEGFVVKAKSKKIPLGGIPSPST | 1 nmol product/nmol P450/min |  | 51 °C
4 | parent-like profiles | Chimera 285-341: CYP102A1 heme domain with residues 285-341 from CYP102A2 (protein, Chimeric Cytochrome P450 heme group sequence from Bacillus megaterium and Bacillus subtilis, CYP102A1 heme domain with residues 285-341 from CYP102A2) TIKEMPQPKTFGELKNLPLLNTDKPVQALMKIADELGEIFKFEAPGRVTRYLSSQRLIKEACDESRFDKNLSQALKFVRDFAGDGLATSWTHEKNWKKAHNILLPSFSQQAMKGYHAMMVDIAVQLVQKWERLNADEHIEVPEDMTRLTLDTIGLCGFNYRFNSFYRDQPHPFITSMVRALDEAMNKLQRANPDDPAYDENKRQFQEDIKVMNDLVDKIIADRKASGEQSDDLLTHMLNGKDPETGEPLDDENIRYQIITFLIAGHETTSGLLSFALYFLVKNPDKLKKAYEEVDRVLTDAAPTYKQVLELTYIRMILNESLRLWPTAPAFSLYPKEDTVIGGEYPLEKGDELMVLIPQLHRDKTIWGDDVEEFRPERFENPSAIPQHAFKPFGNGQRACIGQQFALHEATLVLGMMLKHFDFEDHTNYELDIKETLTLKPEGFVVKAKSKKIPLGGIPSPST | 2.1 nmol product/nmol P450/min |  | 53 °C
5 | altered activity | Chimera 169-197M: mirror chimera of 169-197, sequences from opposite parents at every position (protein, Chimeric Cytochrome P450 heme group sequence from Bacillus megaterium and Bacillus subtilis) KETSPIPQPKTFGPLGNLPLIDKDKPTLSLIKLAEEQGPIFQIHTPAGTTIVVSGHELVKEVCDEERFDKSIEGALEKVRAFSGDGLATSWTHEPNWRKAHNILMPTFSQRAMKDYHEKMVDIAVQLIQKWARLNPNEAVDVPGDMTRLTLDTIGLCGFNYRFNSYYREQPHPFITSMVRALDEAMNKLQRANPDDPAMVRTKRQFRYDIQTMFSLVDSIIAERRANGDQDEKDLLARMLNVEDPETGEKLDDENIRFQIITFLIAGHETTSGLLSFATYFLLKHPDKLKKAYEEVDRVLTDAAPTYKQVLELTYIRMILNESLRLWPTAPAFSLYPKEDTVIGGKFPITTNDRISVLIPQLHRDRDAWGKDAEEFRPERFEHQDQVPHHAYKPFGNGQRACIGMQFALHEATLVLGMILKYFTLIDHENYELDIKQTLTLKPGDFHISVQSRHQEAIHADVQAAE | 0.3 nmol product/nmol P450/min | did not show similarly enhanced levels | 43 °C
6 |  | CYP102A2: parent P450 heme domain from Bacillus subtilis, with the F88A mutation (protein, listed as Bacillus subtilis) KETSPIPQPKTFGPLGNLPLIDKDKPTLSLIKLAEEQGPIFQIHTPAGTTIVVSGHELVKEVCDEERFDKSIEGALEKVRAFSGDGLATSWTHEPNWRKAHNILMPTFSQRAMKDYHEKMVDIAVQLIQKWARLNPNEAVDVPGDMTRLTLDTIGLCGFNYRFNSYYRETPHPFINSMVRALDEAMHQMQRLDVQDKLMVRTKRQFRYDIQTMFSLVDSIIAERRANGDQDEKDLLARMLNVEDPETGEKLDDENIRFQIITFLIAGHETTSGLLSFATYFLLKHPDKLKKAYEEVDRVLTDAAPTYKQVLELTYIRMILNESLRLWPTAPAFSLYPKEDTVIGGKFPITTNDRISVLIPQLHRDRDAWGKDAEEFRPERFEHQDQVPHHAYKPFGNGQRACIGMQFALHEATLVLGMILKYFTLIDHENYELDIKQTLTLKPGDFHISVQSRHQEAIHADVQAAE | 0.4 nmol product/nmol P450/min | low, but detectable peroxidase activity | 44 °C
